Data published in the nanobody polyreactivity screen of Harvey et al. (2022).

Assay: yeast display, Sf9 membrane polyspecificity reagent, FACS + sequencing; frameworks hold sequencing errors
Procedure, shortened: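 Galactose-induced (36–48 hours) yeast carrying a synthetic nanobody display library were exposed to 10% biotinylated, detergent-solubilized Sf9 membrane reagent at 4 °C for 1 hour. FACS followed streptavidin microbead enrichment, using low and high (top ~1%) gates for expression (anti-HA) and reagent binding (streptavidin). Colony PCR, MiSeq 2 × 250 sequencing and CDR-length filtering followed. Labels for polyreactivity reflect the gate of origin.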

Sequence | polyreactivity (PSR sort gate)
QVQLVESGAGLVQAGGSLRISCAASGFTFAYYAMGWYRQAPGKEREFVAAITKGGGSTNYADSVKGRFTISRYNAKNTVYLQMNSLNPEDTAVYYCNADYFVWYIGRVFSRYGYWGQGTQVTVSS | low polyreactivity
QVQLVESGAGLVQAGGSLRISCAASGITFYRNAMGWYRQAPGKERELVAAITWNGGRTYYADSVKGRFTISRDNAKNTVYLQMNSLNPEDTAVYYCAKRYGSTQSRYDFWGPGTQVTVSS | high polyreactivity
QVQLVESGAGLVQAGGSLRISCAASGRIFYVYAMGWYRQAPGKEREFVASISWSGGSTYYADSVKGRFTISRDNANNTVLLQMNSLKPADTAVYYCNARAFTQRYDYWGQGTQVTVSS | low polyreactivity
QVQLVESGAGLVQAGGSLRISCAASGSIFTNAMGWYRQAPGKERELVAAISSSGGSTYYADSVKGRFTISRDNANNTVYLQMNSLKPEDTAVYYCAADHYGGRDYWGQGTQVTVSS | low polyreactivity
QVQLVESGAGLVQAGGSLRISCAASVITFIPYAMGWYRQAPGKERELLASISDGGGTNYADSVKGRFTISRDNAKNTVYLQMNSLKTEDTAVYYCATDASTYAYYGGYYWGHGTQVTVSS | low polyreactivity
QVQLVESGAGLVQAGGSLRLICAASGRTFYPNAMGWYRQAPGKERELVAAITYSGTRTYYADSVKGRFTISRDNAKNTVYLQMNSLKPEDTAVYYCAAVVGKIGFNYWGQGTQVTVSS | high polyreactivity
QVQLVESGAGLVQAGGSLRLSCAASGFIFLAYTMGWSRQGPAKERELVAAISTSGGSTYYADSVKGRFTISRDKAKNTVYLEMNSLKPEDTGVYYCAADYSYWRGYDSWGQGTQVTVSS | high polyreactivity
QVQLVESGAGLVQAGGSLRLSCAASGFIFYIYAMGWYRQAPGKEREFVAVISSSGGITYYADSVKGRFTISRDNAKNTFYLQMNSLKPEDTAVYYCARDTEGKYVGYGRGGYWGQGTQVTVSS | low polyreactivity
QVQLVESGAGLVQAGGSLRLSCAASGFTFPVYAMGWNRQAPGKERELVAAISWSGGGTYYADSVKGRFTISRDIAKNTVYLQMNSLNPEDTAVHYCAARWYYYPLMYDYWGQGTQVTVSS | low polyreactivity
QVQLVESGAGLVQAGGSLRLSCAASGGTFWKYAMGWYRQAPGKESELVAAITWSGSSTYYADSVKGRFTISRDNAKNTVFLLMKSLKPEDTAVYYCARYHVGPSYRYGYWGQGTQVTVSS | high polyreactivity
QVQLVESGAGLVQAGGSLRLSCAASGIIFPFYAMGWYRQAPGKEMELVAAITSDGNTNYADSVKGRFTFSRDNAKNTVYLQMNSLKPVDTAVYYCNAETQYAVLSWHSTRHDYWGQGTQVTLSS | low polyreactivity
QVQLVESGAGLVQAGGSLRLSCAASGRIFHWYAMGWYRQAPGKERELVATANTSYADSVKGRFTISRDNAKNTVYLQMNSLKPEDTAVYYCATVGPRGRSLGDYWGQVTQVTVSS | low polyreactivity
QVQLVESGAGLVQAGGSLRLSCAASGRILIIYAMGWYRQAPGKERELVARITYTGGRTYYADSVKGRFTISRDNAKNTVYRQMNSLKPDDTAVYYCATDWSRSDSYSHYDSWVQGTQVTVSS | low polyreactivity
QVQLVESGAGLVQAGGSLRLSCAASGRNFQYYAMVWYRQAPGKERELVAAISSGGGTYYADSVKGRFTISRDNAKNTVYLQMNSLKPEDTAVYYCAARYVYHRGFDYWGQGTQVTVSS | high polyreactivity
QVQLVESGAGLVQAGGSLRLSCAASGRTFNFYTMGWYRQAPGKERELVAAIDASGGRTYYADSVKGRFTISRDNAKNTVYLQMNSLKPEDTAVYYCAKYPRYSYVGYGYWGQGTQVTVSS | high polyreactivity
QVQLVESGAGLVQAGGSLRLSCAASGSIFGFYAMGWYRQAPGKERELVASISSSGDSTYYADSVKGRFTISRDNAKYTVYLPMNSLKPEDTAVYYCAAVVYDIYGYEFDYWGLGTQVTVSS | low polyreactivity
QVQLVESGAGLVQAGGSLRLSCAASGSIFGPNAMGWYRQAPGKERELVAAISWSGASTYYADSVKGRFTISRDNAMNTVYLQMNSLKPEDTAVYYCAADYYGVSGSGYGYWGQGTQVTVSS | low polyreactivity
QVQLVESGAGLVQAGGSLRLSCAASGSIFKYNTMGWYRQAPGKERELVATISGGGRTYYADSVKGRFTISRDNAKNTVYLQMNSLKPEDTAVYYCAARKRGTFTYDYWGQGTQVTVSS | high polyreactivity
QVQLVESGAGLVQAGGSLRLSCAASGSIFSYYVMGWYRQAPGKERELVAAISYSGGRTYYADSVKGSFTISRDNAKYTVYLQMNSLKPEDTAVYFCAASRRVGEVSYYYWGQGTQVTVSS | high polyreactivity
QVQLVESGAGLVQAGGSLRLSCAASGSIFVQYAMGWSRQAPRNERELVAGISSIGGSTYYADSVKGRFTLSRDNSKNSVYLQMNSLKPEDTAVYYCAKRWRSSYRIGHDYWRQGTQVTVSS | low polyreactivity
QVQLVESGAGLVQAGGSLRLSCAASGSIFWWNALGWYRQAPGKQRELVAAINWSTGRTYYADSVKGRFTISRDNAKNTVYLQMISLKPEDTAVYYCAACFVGDLGYEYWGQGTQVTVSS | low polyreactivity

Sequence | polyreactivity (PSR sort gate)
QVQLVESGAGLVQAGGSLRLSCAASGSILTAYAMGWYRQAPVKERELVAAISRGDITKYADSVKGRFTISRDNAKNTVYLQMNSLQPEDTAVYYCAARVPRYSDSTRGRADYYWGQVTQVTVSS | high polyreactivity
QVQLVESGAGLVQAGGSLRLSCAASGSTFSRYAMGWYRQAPGKERELVAAISRRGGSTYYSDSVKGRFTISRDNSKNTVYLQKISLKPEDTAVYYCAADPQPSSDRGTYDYWGQGTQVSVSS | high polyreactivity
QVQLVESGAGLVQAGGSLRLSCAASGSTLVFYTMGWYRQAPGKERELVAAISYSGGRTYYADSVKGRFTISRDNAKNTVYLQMNSLKPEDTAVYYCAAVGRSYNRISQYDYWGQGTQVTVSS | high polyreactivity
QVQLVESGAGLVQAGGSLRLSCAASGTIFSGNAMGWYRQAPGKESELVAAISRSGGSTYYADSVKGRFTISRDNAKNTVSLQKNSLKPEDTAVYYCAAYRTHGPPRAIRFDYWGQGSQVTVSS | high polyreactivity
QVQLVESGAGLVQAGGSLRLSCAAYGLIFTYNAMGWYRQAPWKERKLVARITSGGNTNYADSVKGRFTISRDYAKNTVYLQMNSLKPEDTAVYYCATCLYWFTNRYGYWGQGTQVTVSS | low polyreactivity
QVQLVESGAGLVQAGGSLRLSCAPSGITFVGNAMGWSRPAPGKERELVAGIRGNGGSTYYADSVKGRFTISRDNAKNTVYFQMNSLKPEDTAVYYSAAAAYYADFDYWGLGTQVTVSS | low polyreactivity
QVQLVESGAGLVQAGGSLRLSCATYGITISYYAMVWYGQGPGKVSELVAAISTSGGSTYYADSVKGRFTFSRDNAKNTVYLQMNSLKPEDTAVFYCAAVYTTGGYTGLEYWGQGTQVTVSS | high polyreactivity
QVQLVESGAGLVQAGGSLRLTCAASGFIFRDYAMGGYRQAPGKDRELVAAISSGDSTNYADSVKGRFTISRDNAKNTVYLLMNSLKPEDTAVYYCAADQVQYTGYTEYDWGQGTQVTVSS | low polyreactivity
QVQLVESGAGLVQAGGSLRLTCAASGFIFRRNAMGWYRQAPGKERELVAAITTGGRTNYADSVKGRFTISRDNAKNTVYLQMNSLKPEDTPVYYCYAPVLDVIDVFYYARILFGYWGQGTQVTVSS | low polyreactivity
QVQLVESGAGLVQAGGSLRLTCAASGSTFYRYAMGWYREAPGKERELVAAINTGGSTNYADSVKGRFTISRDNAKNTVYLQMYSMKPEDTAVYYCAARFQYYRKYDYWGQGTQVTVSS | low polyreactivity
QVQLVESGAGLVQAGGSLRSSCAASGSTFSGNAMGLYRQAPGKERELVAAISGRGGSTYYADSVKGRFTISRDNAKNSVYLQMNSLKPEDTAVYYCAKRRNTRGAYGYWGQGTQVTVSS | high polyreactivity
QVQLVESGAGLVQAGGSLRVSCAASGSIFGKNAMGWYRQAPGKERELVAAITSSGGSTYYADSVKGRFTISRDNAKNTVYLQMNSLKPEDTAVYYCAARPWIWARAGYYWGQGTQVTVSS | high polyreactivity
QVQLVESGAGLVQAGGSRRLSCAASGSIFYRYTMGWYRQAPGKERELVAGITFGAGTYYADSVKGRFTISRDNAKNTVYLQMNSLKPEDTAVYYCNAIHLPRNRDYWGQGTQVTVSS | low polyreactivity
QVQLVESGAGLVQAGVSLRLSCAASGRIFYYYTMGWYRHAPGKERELVASITIGDSTYYADSVKGRFTISRDNAKNTVYLQMNSLKPEDTAVYYCAAVKTVDVGYDYWGQGTQVTVSS | low polyreactivity
QVQLVESGAGLVQARGSLRLSCAASGRIFYQYAMGWYRQAPGKERELVAAISWNGGRTYYADSVKGRFTISRDNAKNTVYLQMNSLKPEDTAVYYCAASFTGYSRDRYGYWGQGTQVTVSS | high polyreactivity
QVQLVESGAGLVQDGGSLRLICAASGRTFTPYAMGRYRQAPGKEMEFVAAISIVGRTKYADSVKGRFTISRDNAKNTVYLQMNSLKPEDTEVYYCNAQDSRDRKFYWGYTRGHWGQGTQVTVSS | low polyreactivity
QVQLVESGAPLVQAGGSLRLSCAASGSTFERYVMGWYRQRLGNKGSWLPVLNHNGGSTYYADSVKGRFTISRDNAKNTVYLQMNSLKPEDTAVYYCAASFRTVLDYGYWGQGTQVTVSS | low polyreactivity
QVQLVESGARLVQAGGSLRLSCAASGSILGGNAMGWYRQPPGKERELVAAITFSGGGTYYADSVKGRFTISRDNAKNTVYLQMNSLKPEDTAVYYCAADIAGYTYEFDYWGQGTQLTVSS | low polyreactivity
QVQLVESGEGLVQAGGSLRLSCAASGSIFSLNAMGWYRQAPGKERELVAAISGRGGSTYYADSVKGRFTISRDNAKNTVYLQMNSLKPEDTAVYYCAARFSRTFLGYYYWGQGTQVTVSS | high polyreactivity
QVQLVESGGAIVQAGRSLRLSCAASGNIFESYGMGWYRQAPGKERELVATINTSSGSTYYADSVKGRFTISRDNAKYTVYLQMNRLKPEDTAVYYCAVRPKTSWYSWYYLGQGTQVTVSS | low polyreactivity
